This assay deals with His6-tagged SRC SH3SH2 (residues 84-251) (human) (UniProt P12931). The assay is described as follows: SPR; His6-SRC SH3SH2 captured on Ni-NTA dextran chip (NiD200M); PTP4A1 injected for 60 seconds at 50 μL/min; 25°C; 20 mM Tris pH 8.0, 250 mM NaCl, 0.05% Tween 20; single injections fit with a 1-to-1 model. On the technique in general: Surface plasmon resonance follows binding to a sensor surface in real time, without labels.

Broadly, the Kd is the concentration at which binding is half-saturated. Lower therefore signals tighter binding. The substance “oxidized PTP4A1 (residues 1-160) for SPR and NMR (from UniProt Q93096 1-160) (domain or fragment)” registered a Kd of 1500 nM.
